Measurements as given in patent US20230417748A1 (GREEN CROSS, published 2023).

Tests used:
Assay in all cases: ELISA (FIG. 7)
[1] = molecular target: T1, RBD-V367F (Sino biologics, 40592-V08H1) (SARS-CoV-2, UniProt P0DTC2 319-541)
T1 construct: domain: RBD

[2] = molecular target: T2, RBD-A522S (Sino biologics, 40592-V08H21) (SARS-CoV-2, UniProt P0DTC2 319-541)
T2 construct: domain: RBD

[3] = molecular target: T3, RBD-N501Y (Sino biologics, 40592-V08H82) (SARS-CoV-2, UniProt P0DTC2 319-541)
T3 construct: domain: RBD

[4] = molecular target: T4, RBD-T478I (Sino biologics, 40592-V08H30) (SARS-CoV-2, UniProt P0DTC2 319-541)
T4 construct: domain: RBD

[5] = molecular target: T5, RBD-S477N (Sino biologics, 40592-V08H46) (SARS-CoV-2, UniProt P0DTC2 319-541)
T5 construct: domain: RBD

[6] = molecular target: Spike-D614G (Sino biologics, 40589-V08B4) (SARS-CoV-2, UniProt P0DTC2 16-1213)
[7] = molecular target: T6, RBD-P479S (Sino biologics, 40592-V08H57) (SARS-CoV-2, UniProt P0DTC2 319-541)
T6 construct: domain: RBD

[8] = molecular target: T7, RBD-N439K (Sino biologics, 40592-V08H14) (SARS-CoV-2, UniProt P0DTC2 319-541)
T7 construct: domain: RBD

Measured: binding result

B1: M5-4 (antibody, V domains shown)
VH: EVQLVESGGGLVKPGGSLRLSCAASGFTFSSRGMSWVRQAPGKGLEWVSTISFGDIYTYYPDSVKGRFTISRDNAKNSLYLQMNSLRAEDTAVYYCARPNDGYFDYWGQGTLVTVSS
VL: DIQMTQSPSSLSASVGDRVTITCKASQSVSNDVAWYQQKPGKAPKLLIYYASNRYTGVPSRFSGSGSGTDFTLTISSLQPEDFATYYCQQSYSAPYTFGGGTKVEIKR
binds: all assays above
